According to article PMC4218836 (2014):
Changes are numbered by the printed parent chain.

B1: scFvE3 (soluble, in fusion with the N-terminal domain of the phage P3 protein) (scFv, V domains shown)
VH: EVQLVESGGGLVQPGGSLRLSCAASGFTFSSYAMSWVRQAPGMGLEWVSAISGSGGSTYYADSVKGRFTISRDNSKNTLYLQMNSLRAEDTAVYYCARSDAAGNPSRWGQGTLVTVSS
VL: SSELTQDPAVSVALGQTVRITCQGDSLRSYYTSWYQQKPGQAPVRVIYGKNNRPSGVPDRFSGSSSGNTASLTITGAQAEDEADYYCNSRDSSGNHAYVFGGGTKLTVL
B2: scFvA5 (soluble, in fusion with the N-terminal domain of the phage P3 protein) (scFv, V domains shown)
VH: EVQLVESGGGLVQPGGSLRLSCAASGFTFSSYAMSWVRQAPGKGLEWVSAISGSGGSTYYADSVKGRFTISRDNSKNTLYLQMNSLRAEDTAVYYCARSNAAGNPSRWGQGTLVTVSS
VL: B1 VL with T32A, R45L, V57I
B3: scFvD10 (soluble, in fusion with the N-terminal domain of the phage P3 protein) (scFv, V domains shown)
VH: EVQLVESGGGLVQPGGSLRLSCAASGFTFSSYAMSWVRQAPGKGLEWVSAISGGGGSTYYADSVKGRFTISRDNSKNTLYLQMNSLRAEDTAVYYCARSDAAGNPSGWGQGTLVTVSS
VL: B1 VL with T32A, R45L, V57I
B4: scFvF7 (soluble, in fusion with the N-terminal domain of the phage P3 protein) (scFv, V domains shown)
VH: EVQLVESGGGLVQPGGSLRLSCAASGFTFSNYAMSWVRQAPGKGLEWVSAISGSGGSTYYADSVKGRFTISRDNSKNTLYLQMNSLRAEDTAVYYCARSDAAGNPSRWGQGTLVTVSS
VL: B1 VL with T32A, R45L, V57I, S89T

Tests used:
GST-RhoBL63 [1] = target: T1, GST-RhoBL63 (UniProt P62745 1-196, L63); assay: SPR
GST-RhoAL63 [2] = target: T2, GST-RhoAL63 (UniProt P61586 1-193, L63); assay: SPR
GST-RhoBL63 [3] = target: T1, GST-RhoBL63; assay: SPR; remark: listed apart in the source
GST-RhoAL63 [4] = target: T2, GST-RhoAL63; assay: SPR; remark: listed apart in the source
6xHis-RhoAL63 = 6xHis-RhoAL63 (UniProt P61586 1-193, L63); assay: ELISA
6xHis-RhoBL63 = 6xHis-RhoBL63 (UniProt P62745 1-196, L63); assay: ELISA
Sequence of 6xHis-RhoBL63 (P62745 other isoform, or with tags, fused parts or gaps L63): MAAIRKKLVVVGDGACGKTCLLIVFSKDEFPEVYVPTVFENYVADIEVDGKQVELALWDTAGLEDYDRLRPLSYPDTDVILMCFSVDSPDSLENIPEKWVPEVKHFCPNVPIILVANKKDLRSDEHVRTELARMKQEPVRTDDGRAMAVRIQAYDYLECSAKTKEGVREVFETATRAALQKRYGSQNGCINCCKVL

T2 sequence (P61586 other isoform, or with tags, fused parts or gaps L63): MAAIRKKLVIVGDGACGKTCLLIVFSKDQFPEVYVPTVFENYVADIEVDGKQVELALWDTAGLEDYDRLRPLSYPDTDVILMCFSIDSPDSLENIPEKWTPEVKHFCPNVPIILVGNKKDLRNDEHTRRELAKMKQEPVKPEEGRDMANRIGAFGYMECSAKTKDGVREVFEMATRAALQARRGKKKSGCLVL
T1 sequence (P62745 other isoform, or with tags, fused parts or gaps L63): as the sequence (P62745 other isoform, or with tags, fused parts or gaps L63) above
Sequence of 6xHis-RhoAL63 (P61586 other isoform, or with tags, fused parts or gaps L63): as the sequence (P61586 other isoform, or with tags, fused parts or gaps L63) above

Row | Binder | koff (GST-RhoBL63 [1]) [s⁻¹] | koff (GST-RhoAL63 [2]) [s⁻¹] | Kd (GST-RhoBL63 [3]) [nM] | Kd (GST-RhoAL63 [4]) [nM] | Kd (6xHis-RhoAL63) [nM] | Kd (6xHis-RhoBL63) [nM]
1 | B1 | 0.000683 | 0.0176 | 3.14 | 36.9 |  | 
2 | B2 |  |  |  |  | 24.5 | 24
3 | B3 |  | 0.00297 |  | 39.6 |  | 
4 | B4 | 0.000414 | 0.000248 | 3.39 | 2.35 |  | 
